Assay in all cases: HPLC product assay, Michaelis-Menten fit
Common to all, as to type: biochemical, Citrus maxima

Substrate in data set [1]: O=c1cc(-c2ccc(O)cc2)oc2cc(O)cc(O)c12
Conditions: 1 mM UDP-glucose.

Substrate in data set [2]: O=c1c(O)c(-c2ccc(O)cc2)oc2cc(O)cc(O)c12
Conditions: 1 mM UDP-glucose.

Substrate in data set [3]: O=C1C[C@@H](c2ccc(O)cc2)Oc2cc(O)cc(O)c21
Conditions: 1 mM UDP-glucose.

Substrate in data set [4]: COc1ccc([C@@H]2CC(=O)c3c(O)cc(O)cc3O2)cc1O
The conditions noted are these: 1 mM UDP-glucose.

Substrate in data set [5]: O=c1c(O)c(-c2ccc(O)c(O)c2)oc2cc(O)cc(O)c12
The conditions noted are these: 1 mM UDP-glucose, 50 mM PBS pH 7.0, 35 °C. An excerpt: (§1) HPLC product assay, Michaelis-Menten fit on CgUGT89AK1

Substrate in data set [6]: O=c1cc(-c2ccc(O)cc2)oc2cc(O)cc(O)c12
The conditions noted are these: 1 mM UDP-glucose, 50 mM PBS pH 7.0, 35 °C.
Source text: as §1

Substrate in data set [7]: COc1ccc(-c2cc(=O)c3c(O)cc(O)cc3o2)cc1O
Conditions: 1 mM UDP-glucose, 50 mM PBS pH 7.0, 35 °C.
Source text: as §1

Substrate in data set [8]: O=C1C[C@@H](c2ccc(O)cc2)Oc2cc(O)cc(O)c21
The conditions noted are these: 1 mM UDP-glucose, 50 mM PBS pH 7.0, 35 °C.
Source text: as §1

Substrate in data set [9]: O=C1C[C@@H](c2ccc(O)c(O)c2)Oc2cc(O)cc(O)c21
The conditions noted are these: 1 mM UDP-glucose, 50 mM PBS pH 7.0, 35 °C.
Source text: as §1

Substrate in data set [10]: COc1ccc(-c2cc(=O)c3c(O)cc(O)cc3o2)cc1O
Conditions: 1 mM UDP-glucose, 50 mM PBS pH 7.0, 35 °C. The source holds these as a separate data set.

For orientation: Km means the concentration of substrate that gives half-maximal velocity. Usually kcat/Km stands for the turnover number divided by the Michaelis constant.

B1: CgUGT89D30 (Citrus maxima) (protein)
chain: MSSSNTRTTHILIFPYPAQGHMLPLLDLTHQLSLKDLDITILVTPKNLPILSPLLDAHPAIKTLVLPFPSHPSIPPGIENVRELGNRGNYPIMTALGKLYGPIIDWFRSQANPPVAILSDFFLGWTLKLAHQLNIVRIAFFSSGWLLASVVDYCWHHIGDVKSLDVVEFPDLPRYPVFKRRHLPSMVRSYKESDPESQFVKDGNLANTSSWGCVFNSFDALEGEYSDYLKRKMGHDRVFGVGPLSLVGLESTGGGDPGLGPNDHVTKWLDGCPDGSVVYVCFGSQKALKRDQMEALASGLEKSGIRFLWVVKTGMIGKGDDGYGSMPDGFEEQVAGRGLVLKGWAPQVSILSHKAVGGFLSHCGWNSLLEGIVGGAMILAWPMEADQFVNAKLLVEDLGVAVQVCEGADSVPDSDELGNIIAESLSQRDEVKIKAKELRDDALAAVKSDGSSARDLDRLVEELRNLHAK
For B1, the Km in data set [1] (50 mM PBS pH 7.0, 30 °C) came to 17.34 ± 10.85 µM; in data set [2] (50 mM PBS pH 7.0, 30 °C), 35.76 ± 18.07 µM; in data set [3] (50 mM PBS pH 7.0, 30 °C), 79.57 ± 5.51 µM; in data set [4] (50 mM PBS pH 7.0, 30 °C), 207.41 ± 77.33 µM. Besides, the kcat/Km stood at 88.2 M⁻¹ s⁻¹ in data set [1] (50 mM PBS pH 7.0, 30 °C); 21.9 M⁻¹ s⁻¹ in [2] (50 mM PBS pH 7.0, 30 °C); 18.1 M⁻¹ s⁻¹ in data set [3] (50 mM PBS pH 7.0, 30 °C); 11 M⁻¹ s⁻¹ in [4] (50 mM PBS pH 7.0, 30 °C).

B2: CgUGT89AK1 (Citrus maxima) (protein)
chain: MLPAGAHILVYPFPTSGHIIPLLDLTNRLLTLGLNVTVLITQNNLPLLDSLNANHPSTSLQSLVLPQPKWPAGSPATRLLKFMRVLRELHYPALLDWFKSHPSPPVAILSDFFLGWTQGLAAELGLPRVVFSPSGAFALSVSFAMWTDLPTNDDPDNVDALVSFPRVPNCPVYHWYQISHLYRTLKEGDPDWDLHRSNMMANKTSWGIVFNSFAELERVYIDHMKKEMGHDRVWAVGPVLPPDDDLVESMCRGGSSSVPAHDVLTWLDSRRDESVVYVCFGSRYVLTAKQIHELAAALEKTDVDFVYCVREPDERHASQDCGVLPDGFEDRVAGRGYVIRGWSQQVAILRHKAVGAFLTHCGWNSVLEGVSAGVVMLTWPMDADQYTNAQLLVDQLGVGIRVGEGTRNIPESGELARLLAQSVDGPRRERLKARELSGAALSAVVKGGSSDRDLNDFIKRINELKSGKNLTAV
Turning to B2, the Km in data set [5] is 19.44 ± 11.00 µM; in [6], 24.37 ± 5.03 µM; in [7], 6.16 ± 2.64 µM; in [8], 52.88 ± 17.30 µM; in data set [9], 26.25 ± 5.65 µM. The kcat/Km stood at 1350 M⁻¹ s⁻¹ in data set [5]; 107 M⁻¹ s⁻¹ in data set [6]; 284 M⁻¹ s⁻¹ in data set [7]; 48.3 M⁻¹ s⁻¹ in data set [8]; 154 M⁻¹ s⁻¹ in [9].

B3: CgUGT73AC12 (Citrus maxima) (protein)
chain: MDSKSSPVEMFFFPYVGGGHQIPMVDIARIFAAHGAKSTIITSPKHALSFQKSINRNQQSGLPITIKTLHLPDDIEIPDTDMSATPRTDTSMLQKPLKSLLLDSRPDCIVHDMFHHWSADVINSMNIPRIVFNGNCCFSRCVLENVRKYKPHEKVSSDYEPFVVPGLPDKIELTSSQLPVGARQQEAGSVHKMFAKPEEKSFGIVVNSFYDLEPAYVEYFKQDLGNDKAWFVGPVSLCNRNIEDKAERGQKTSIDEGKILSFLDSKETNSVLYISFGSLARLAPEQLLEIAYGLEASNHSFIWVVGKIFQSPGTRKENGIEENWLPSGFEERMRESKRGLIIRGWAPQLLILEHAAVGGFMTHCGWNSTLESVSAGVPMVTWPITAEQFSNEKLISDVLKIGVKVGSVNWVSWSTEPSAAVGRDKVEVAVKRLMGTGEEAAEMRRRAGELGEKAKNAVEEGGSSFIDAEALLQELKSLSRI
For B3, the Michaelis-Menten constant (Km) stood at 153.66 ± 62.17 µM in [1] (50 mM PBS pH 7.0, 35 °C); 92.58 ± 55.02 µM in [2] (50 mM PBS pH 7.0, 35 °C); 105.34 ± 35.62 µM in data set [3] (50 mM PBS pH 7.0, 35 °C); 169.68 ± 54.77 µM in [4] (50 mM PBS pH 7.0, 35 °C). For the same protein, the kcat/Km came to 5.93 M⁻¹ s⁻¹ in data set [1] (50 mM PBS pH 7.0, 35 °C); 11 M⁻¹ s⁻¹ in data set [2] (50 mM PBS pH 7.0, 35 °C); 6.36 M⁻¹ s⁻¹ in data set [3] (50 mM PBS pH 7.0, 35 °C); 5.62 M⁻¹ s⁻¹ in data set [4] (50 mM PBS pH 7.0, 35 °C).

B4: CgUGT90A31 (Citrus maxima) (protein)
chain: MGSISSDHHVVLFPFMSKGHIIPILNLVQLLLRRPRVTVTVFTTPANRPFTSKFLSNSSTAACSIIDIPYPENVPEIPAGVESTDKLPSMSLYVPFTRATKLMQPHFERALESLPRVSFMVSDGFLWWTLDSANKFGFPRLVFYGMNNYAMSVSRSVGQNRLLSGVQSDDELLTLPEFPWIKITKKDFDSPITDPEPKGPHFELFIDQIVSTSNSHGMIVNSFYELEPLFADHCNRVGKPKSWCVGPLCLAELPPKNEEPKNELSKPAWIKWLDRKLDEGSSVMYVAFGSQAEISAQQLKEIAIGLEQSKVNFLWVIRTAQSELGDGFEERVKGRGLVVRDWVDQNEILWHGSVQGFLSHCGWNSTLESICAGVPILAWPMMAEQPLNARMVTEEIKVGLRVETCDGSVRGFVKWRGLEKTMRELMGGEKGEKARTKVKELSEIARKAMEEGKGSSWRCLDMLLDETCKLEQHD
Take B4: the Km in data set [2] (50 mM PBS pH 7.0, 35 °C) was 56.20 ± 19.14 µM; in data set [10], 34.93 ± 10.80 µM; in data set [3] (50 mM PBS pH 7.0, 35 °C), 139.04 ± 40.50 µM; in data set [4] (50 mM PBS pH 7.0, 35 °C), 179.10 ± 48.24 µM. The kcat/Km in data set [2] (50 mM PBS pH 7.0, 35 °C) was 6.48 M⁻¹ s⁻¹; in [10], 15.8 M⁻¹ s⁻¹; in [3] (50 mM PBS pH 7.0, 35 °C), 52 M⁻¹ s⁻¹; in [4] (50 mM PBS pH 7.0, 35 °C), 51.4 M⁻¹ s⁻¹.

(Values after paper PMC11165160, “Four novel Cit7GlcTs functional in flavonoid 7-O-glucoside biosynthesis are vital to flavonoid biosynthesis shunting in citrus” (Horticulture Research, 2024).)
